Paper PMC9609667, “Serendipitous Discovery of a Competitive Inhibitor of FraB, a Salmonella Deglycase and Drug Target” (Pathogens, 2022)

How the values were obtained:
[1] = biological target: FrlB deglycase (Salmonella) (Salmonella); assay: native MS; 3 uM FraB or FrlB mixed with 150, 300 or 450 uM 2-deoxy-6-P-GA; 200 mM ammonium acetate (pH adjusted to 7.4 for FraB); mixed at 25 °C, incubated 30 min at room temperature; nano-ESI, Q Exactive UHMR Orbitrap
[2] = biological target: FraB, a Salmonella deglycase (Salmonella); assay: as above
FrlB = biological target: T1, FrlB (Salmonella enterica, UniProt Q8ZJX7); assay: native mass spectrometry (dimer with one or two ligands); about […] inhibition at […] in coupled assay; format: binding
T1 construct: gene STM4540; recombinant FrlB, His6 tag removed
T1 sequence (Q8ZJX7 1-343): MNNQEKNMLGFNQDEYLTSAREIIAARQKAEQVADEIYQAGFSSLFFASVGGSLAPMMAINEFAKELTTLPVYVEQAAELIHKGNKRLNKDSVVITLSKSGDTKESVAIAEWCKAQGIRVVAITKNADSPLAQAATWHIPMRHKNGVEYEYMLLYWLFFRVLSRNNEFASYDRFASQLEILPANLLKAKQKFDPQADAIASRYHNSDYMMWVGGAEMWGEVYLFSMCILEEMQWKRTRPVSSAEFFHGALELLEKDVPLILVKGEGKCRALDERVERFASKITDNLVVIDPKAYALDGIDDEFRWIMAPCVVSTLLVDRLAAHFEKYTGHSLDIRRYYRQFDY

FraB = biological target: T2, FraB (Salmonella enterica, UniProt Q8ZLD0); assay: G6PDH-coupled deglycase assay, Michaelis-Menten analysis; binding confirmed by native MS; format: biochemical
T2 construct: gene STM3601; 325-aa construct, N-terminal His6-tag

FrlB deglycase (Salmonella) (enzyme)
stoichiometry N [1]: 2

FraB, a Salmonella deglycase (enzyme)
stoichiometry N [2]: 2

O=C(O)C[C@@H](O)[C@H](O)[C@H](O)COP(=O)(O)O [2-deoxy-6-P-GA, 2-deoxy-6-phosphogluconate]
native mass spectrometry (dimer with one or two ligands); about 50% inhibition a (FrlB): These results confirm the direct interaction of 2-deoxy-6-P-GA to FraB and FrlB.
Ki (FraB): 3.3 µM
